# Source: patent US20050074865A1 (COMPOUND THERAPEUTICS, published 2005)
# Where no end group is shown, it is not given here.
# T1: biotinylated target peptide NH2-YPYDVPDYAGSGDYKAFD containing the high affinity HA epitope (also: biotinylated, position not given here)
# T1 construct: also called the peptide
# T1 peptide: YPYDVPDYAGSGDYKAFD
# B1: scFvαHA, single chain antibody derived from monoclonal antibody mAb26/9 (address domain alone, expressed from pSecTag2A with C-terminal myc and His6 tags) (scFv, not shown: small tags and cut ends)
# scFv: MEVQLLESGGDLVKPGGSLKLSCAASGFTFSTYGMSWVRQTPDKRLEWVATISNGGGYTYYPDSVKGRFTISRDNAKNTLYLQMSSLKSEDTAMYYCARRERYDENGFAYWGRGTLVTVSAGGGGSGGGGSGGGGSDIVMSQSPSSLAVSVGEKITMSCKSSQSLFNSGKQKNYLTWYQQKPGQSPKLLIYWASTRESGVPDRFTGSGSGTDFTLTISSVKAEDLAVYYCQNDYSHPLTFGGGTKLEIKRADAAPT
# notes: also called scHA; scFv anti-HA
# B2: sp55, full-length ecto-domain of human TNFR-1 (residues 30-211) with C-terminal myc and His6 tags, expressed from pSecTag2A (receptor)
# chain: DAAQPARRAVRSLVPHLGDREKRDSVCPQGKYIHPQNNSICCTKCHKGTYLYNDCPGPGQDTDCRECESGSFTASENHLRHCLSCSKCRKEMGQVEISSCTVDRDTVCGCRKNQYRHYWSENLFQCFNCSLCLNGTVHLSCQEKQNTVCTCHAGFFLRENECVSCSNCKKSLECTKLCLPQIENVKGTEDSGTTRGGPEQKLISEEDLNSAVDHHHHHH
# notes: also called sp55 address domain; p55FL
# Columns and labels:
# [1] = target: T1, biotinylated target peptide …; experiment: sandwich ELISA: component captured on anti-myc (mAb 9E10) plates, biotinylated peptide detected with streptavidin-HRP
# Description: Applicants assessed binding activity of various components using biotinylated peptides in a sandwich ELISA format. […] Bound peptides were quantified using a streptavidin-horseradish peroxidase detection system (Quantablue; Pierce, Rockford, Ill.).
# [2] = target: T2, S-TNF, human TNFα fusion protein with an N-terminal S-Tag (human, UniProt P01375 77-233); experiment: indirect ELISA: sp55 from conditioned medium captured on Ni-NTA wells, S-TNF at 1 µg/mL, detection with S-protein-HRP, absorbance at 370 nm
# T2 construct: Made by the applicants; not shown: 15 amino acid S-Tag peptide (Novagen)
# T2 sequence (P01375 77-233): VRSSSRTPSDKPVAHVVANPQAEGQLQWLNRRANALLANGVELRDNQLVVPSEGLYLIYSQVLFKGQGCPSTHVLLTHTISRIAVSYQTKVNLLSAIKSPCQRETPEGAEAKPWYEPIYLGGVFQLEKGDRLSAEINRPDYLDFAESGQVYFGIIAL
binder,measurement,setting,value
B1,binding result,[1],binds
B2,fold elevation of S-TNF binding over non-specific binding in control samples,[2],3 fold
